Like-named read-outs stand apart in the source and are kept apart here.
What was measured:
[1] = biological target: cell-free expressed recombinant human p53 with N-terminal VSV-G epitope tag and C-terminal polyhisti (human) (UniProt P04637)
[2] = biological target: cell-free expressed recombinant human KLHL12 with N-terminal VSV-G epitope tag and C-terminal polyhistidine and HSV epitope tags (human) (UniProt Q53G59)
[3] = biological target: cell-free expressed recombinant human p53 with N-terminal VSV-G epitope tag and C-terminal polyhisti (human) (UniProt P04637); remark: listed apart in the source
[4] = biological target: cell-free expressed recombinant human p53 with N-terminal VSV-G epitope tag and C-terminal polyhisti (human) (UniProt P04637); assay: fluorescence imaging of p53 beads against blank beads, anti-VSV-Cy3 antibody
[5] = biological target: cell-free expressed recombinant human p53 with N-terminal VSV-G epitope tag and C-terminal polyhisti (human) (UniProt P04637); assay: fluorescence imaging of p53 positive against negative control blank beads
[6] = biological target: cell-free expressed recombinant human p53 with N-terminal VSV-G epitope tag and C-terminal polyhisti (human) (UniProt P04637); assay: Bead-ELISA, chemiluminescence normalised to bead fluorescence; mass-tagged beads

Sequence of UniProt Q53G59 (Q53G59 other isoform, or with tags, fused parts or gaps limits assumed): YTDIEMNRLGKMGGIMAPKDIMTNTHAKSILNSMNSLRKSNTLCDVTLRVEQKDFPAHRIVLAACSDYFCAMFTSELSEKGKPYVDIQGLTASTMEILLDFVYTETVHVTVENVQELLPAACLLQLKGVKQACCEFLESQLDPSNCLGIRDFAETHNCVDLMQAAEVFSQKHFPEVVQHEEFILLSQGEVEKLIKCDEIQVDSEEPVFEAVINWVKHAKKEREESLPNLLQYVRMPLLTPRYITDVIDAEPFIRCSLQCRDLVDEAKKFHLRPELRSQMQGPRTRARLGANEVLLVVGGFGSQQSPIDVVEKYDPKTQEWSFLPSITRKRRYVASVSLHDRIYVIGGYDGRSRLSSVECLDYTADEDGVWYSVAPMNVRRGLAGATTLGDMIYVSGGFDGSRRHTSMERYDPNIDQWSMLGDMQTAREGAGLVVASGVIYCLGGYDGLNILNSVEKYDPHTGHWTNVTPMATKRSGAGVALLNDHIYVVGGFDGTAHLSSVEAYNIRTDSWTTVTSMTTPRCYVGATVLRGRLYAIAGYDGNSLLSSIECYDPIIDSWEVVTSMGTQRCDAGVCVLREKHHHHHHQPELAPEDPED

anti-HSV tag monoclonal antibody (EMD Biosciences)
reduction of the binding capacity of the beads for p53 by the mass tag [1]: 50%

fluorescently (Cy3) labeled anti-VSV-G tag antibody (Sigma-Aldrich)
signal-to-noise ratio [2]: 10 :1 | signal-to-noise ratio [3]: 60 :1 | signal-to-noise [4]: 25 :1

fluorescently labeled (Alexa Fluor 594) anti-p53 antibody, clone BP53-12 (Santa Cruz Biotechnology)
signal-to-noise ratio [5]: > 100 :1

monoclonal anti-VSV-G horseradish peroxidase (HRP) conjugated antibody, Clone P5D4
signal-to-noise ratio [1]: 82 :1 | signal-to-noise ratio [6]: 42 :1

From patent US20140235471A1
